Source: article PMC2896254 (Biopolymers, 2009)
Like-named read-outs stand apart in the source and are kept apart here. The star is where a group is joined. MBP = 4-(maleimido)benzophenone, alkylating the Cys, O=C(c1ccccc1)c1ccc(N2C(=O)CC(*)C2=O)cc1; Biotin = O=C1N[C@H]2[C@H](CS[C@H]2CCCCC(=O)*)N1

Legend:
Assay in all cases: pull-down
[1] = target: T1, Wild-type full-length Ffh carrying an N-terminal deca-His tag (E. coli, UniProt P0AGD7 1-453)
T1 sequence (looked up): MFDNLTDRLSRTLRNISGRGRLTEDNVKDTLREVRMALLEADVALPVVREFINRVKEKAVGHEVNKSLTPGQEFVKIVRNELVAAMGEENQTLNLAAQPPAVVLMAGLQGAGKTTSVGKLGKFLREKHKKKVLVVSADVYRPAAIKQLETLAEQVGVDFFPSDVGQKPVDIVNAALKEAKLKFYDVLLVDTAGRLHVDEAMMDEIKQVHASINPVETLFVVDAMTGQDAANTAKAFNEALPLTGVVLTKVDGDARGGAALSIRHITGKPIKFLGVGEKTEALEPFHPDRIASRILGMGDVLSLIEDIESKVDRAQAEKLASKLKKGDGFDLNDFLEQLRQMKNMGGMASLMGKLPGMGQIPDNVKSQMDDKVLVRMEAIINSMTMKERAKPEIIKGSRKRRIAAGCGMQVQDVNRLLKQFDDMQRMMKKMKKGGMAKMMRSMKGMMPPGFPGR

[2] = target: T1, Wild-type full-length Ffh carrying an …; remark: listed apart in the source
[3] = target: T2, His-tagged M domain of Ffh (M297 to R453) (E. coli, UniProt P0AGD7 297-453)
T2 sequence (looked up): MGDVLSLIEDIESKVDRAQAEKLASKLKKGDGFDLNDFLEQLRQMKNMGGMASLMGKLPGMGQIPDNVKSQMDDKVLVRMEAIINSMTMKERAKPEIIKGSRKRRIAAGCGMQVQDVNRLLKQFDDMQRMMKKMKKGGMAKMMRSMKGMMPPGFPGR

[4] = target: T3, His-tagged NG domain of Ffh (residues M1 to V300) (E. coli, UniProt P0AGD7 1-300)
T3 sequence (looked up): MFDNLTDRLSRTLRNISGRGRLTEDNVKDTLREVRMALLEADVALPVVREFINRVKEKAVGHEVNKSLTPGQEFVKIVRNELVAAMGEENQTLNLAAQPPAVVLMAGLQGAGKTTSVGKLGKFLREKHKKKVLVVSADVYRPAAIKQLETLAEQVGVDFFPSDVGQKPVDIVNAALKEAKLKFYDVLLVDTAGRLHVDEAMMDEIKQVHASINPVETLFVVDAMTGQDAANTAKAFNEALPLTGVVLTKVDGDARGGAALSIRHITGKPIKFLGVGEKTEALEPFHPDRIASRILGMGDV

B1: BioPhoAC10 (peptide)
peptide: Biotin-MKQKKKLALCLLLLLLTPVTKA-NH2
SMILES: CSCC[C@H](NC(=O)CCCC[C@@H]1SC[C@@H]2NC(=O)N[C@@H]21)C(=O)N[C@@H](CCCCN)C(=O)N[C@@H](CCC(N)=O)C(=O)N[C@@H](CCCCN)C(=O)N[C@@H](CCCCN)C(=O)N[C@@H](CCCCN)C(=O)N[C@@H](CC(C)C)C(=O)N[C@@H](C)C(=O)N[C@@H](CC(C)C)C(=O)N[C@@H](CS)C(=O)N[C@@H](CC(C)C)C(=O)N[C@@H](CC(C)C)C(=O)N[C@@H](CC(C)C)C(=O)N[C@@H](CC(C)C)C(=O)N[C@@H](CC(C)C)C(=O)N[C@@H](CC(C)C)C(=O)N[C@H](C(=O)N1CCC[C@H]1C(=O)N[C@H](C(=O)N[C@H](C(=O)N[C@@H](CCCCN)C(=O)N[C@@H](C)C(N)=O)[C@@H](C)O)C(C)C)[C@@H](C)O
- binding result [1]: binds

B2: BioPhoAC14 (peptide)
peptide: Biotin-MKQKKKLALLLLLCLLTPVTKA-NH2
SMILES: CSCC[C@H](NC(=O)CCCC[C@@H]1SC[C@@H]2NC(=O)N[C@@H]21)C(=O)N[C@@H](CCCCN)C(=O)N[C@@H](CCC(N)=O)C(=O)N[C@@H](CCCCN)C(=O)N[C@@H](CCCCN)C(=O)N[C@@H](CCCCN)C(=O)N[C@@H](CC(C)C)C(=O)N[C@@H](C)C(=O)N[C@@H](CC(C)C)C(=O)N[C@@H](CC(C)C)C(=O)N[C@@H](CC(C)C)C(=O)N[C@@H](CC(C)C)C(=O)N[C@@H](CC(C)C)C(=O)N[C@@H](CS)C(=O)N[C@@H](CC(C)C)C(=O)N[C@@H](CC(C)C)C(=O)N[C@H](C(=O)N1CCC[C@H]1C(=O)N[C@H](C(=O)N[C@H](C(=O)N[C@@H](CCCCN)C(=O)N[C@@H](C)C(N)=O)[C@@H](C)O)C(C)C)[C@@H](C)O
- binding result [2]: binds

B3: BioPhoAC12 (peptide)
peptide: Biotin-MKQKKKLALLLCLLLLTPVTKA-NH2
SMILES: CSCC[C@H](NC(=O)CCCC[C@@H]1SC[C@@H]2NC(=O)N[C@@H]21)C(=O)N[C@@H](CCCCN)C(=O)N[C@@H](CCC(N)=O)C(=O)N[C@@H](CCCCN)C(=O)N[C@@H](CCCCN)C(=O)N[C@@H](CCCCN)C(=O)N[C@@H](CC(C)C)C(=O)N[C@@H](C)C(=O)N[C@@H](CC(C)C)C(=O)N[C@@H](CC(C)C)C(=O)N[C@@H](CC(C)C)C(=O)N[C@@H](CS)C(=O)N[C@@H](CC(C)C)C(=O)N[C@@H](CC(C)C)C(=O)N[C@@H](CC(C)C)C(=O)N[C@@H](CC(C)C)C(=O)N[C@H](C(=O)N1CCC[C@H]1C(=O)N[C@H](C(=O)N[C@H](C(=O)N[C@@H](CCCCN)C(=O)N[C@@H](C)C(N)=O)[C@@H](C)O)C(C)C)[C@@H](C)O
- binding result [2]: binds

B4: BioPhoAC13 (peptide)
peptide: Biotin-MKQKKKLALLLLCLLLTPVTKA-NH2
SMILES: CSCC[C@H](NC(=O)CCCC[C@@H]1SC[C@@H]2NC(=O)N[C@@H]21)C(=O)N[C@@H](CCCCN)C(=O)N[C@@H](CCC(N)=O)C(=O)N[C@@H](CCCCN)C(=O)N[C@@H](CCCCN)C(=O)N[C@@H](CCCCN)C(=O)N[C@@H](CC(C)C)C(=O)N[C@@H](C)C(=O)N[C@@H](CC(C)C)C(=O)N[C@@H](CC(C)C)C(=O)N[C@@H](CC(C)C)C(=O)N[C@@H](CC(C)C)C(=O)N[C@@H](CS)C(=O)N[C@@H](CC(C)C)C(=O)N[C@@H](CC(C)C)C(=O)N[C@@H](CC(C)C)C(=O)N[C@H](C(=O)N1CCC[C@H]1C(=O)N[C@H](C(=O)N[C@H](C(=O)N[C@@H](CCCCN)C(=O)N[C@@H](C)C(N)=O)[C@@H](C)O)C(C)C)[C@@H](C)O
- binding result [2]: binds

B5: BioPhoAC11-BP (peptide)
peptide: Biotin-MKQKKKLALLC(MBP)LLLLLTPVTKA-NH2
SMILES: CSCC[C@H](NC(=O)CCCC[C@@H]1SC[C@@H]2NC(=O)N[C@@H]21)C(=O)N[C@@H](CCCCN)C(=O)N[C@@H](CCC(N)=O)C(=O)N[C@@H](CCCCN)C(=O)N[C@@H](CCCCN)C(=O)N[C@@H](CCCCN)C(=O)N[C@@H](CC(C)C)C(=O)N[C@@H](C)C(=O)N[C@@H](CC(C)C)C(=O)N[C@@H](CC(C)C)C(=O)N[C@@H](CSC1CC(=O)N(c2ccc(C(=O)c3ccccc3)cc2)C1=O)C(=O)N[C@@H](CC(C)C)C(=O)N[C@@H](CC(C)C)C(=O)N[C@@H](CC(C)C)C(=O)N[C@@H](CC(C)C)C(=O)N[C@@H](CC(C)C)C(=O)N[C@H](C(=O)N1CCC[C@H]1C(=O)N[C@H](C(=O)N[C@H](C(=O)N[C@@H](CCCCN)C(=O)N[C@@H](C)C(N)=O)[C@@H](C)O)C(C)C)[C@@H](C)O
- binding result [1]: binds

B6: BioPhoAC11 (peptide)
peptide: Biotin-MKQKKKLALLCLLLLLTPVTKA-NH2
SMILES: CSCC[C@H](NC(=O)CCCC[C@@H]1SC[C@@H]2NC(=O)N[C@@H]21)C(=O)N[C@@H](CCCCN)C(=O)N[C@@H](CCC(N)=O)C(=O)N[C@@H](CCCCN)C(=O)N[C@@H](CCCCN)C(=O)N[C@@H](CCCCN)C(=O)N[C@@H](CC(C)C)C(=O)N[C@@H](C)C(=O)N[C@@H](CC(C)C)C(=O)N[C@@H](CC(C)C)C(=O)N[C@@H](CS)C(=O)N[C@@H](CC(C)C)C(=O)N[C@@H](CC(C)C)C(=O)N[C@@H](CC(C)C)C(=O)N[C@@H](CC(C)C)C(=O)N[C@@H](CC(C)C)C(=O)N[C@H](C(=O)N1CCC[C@H]1C(=O)N[C@H](C(=O)N[C@H](C(=O)N[C@@H](CCCCN)C(=O)N[C@@H](C)C(N)=O)[C@@H](C)O)C(C)C)[C@@H](C)O
- binding result [1]: binds
- binding result [3]: binds
- binding result [4]: binds
